Laboratory results taken from the supplement of paper PMC12636428.

Tested on: Saccharomyces cerevisiae
Assay: transcriptional activation domain activity (GFP:mCherry ratio, weighted mean of sorted bins, harmonized to initial dataset scale) (arbitrary fluorescence ratio units); higher = stronger transcriptional activation
Conditions: beta-estradiol 1 µM; induction time 4 h
Method in brief: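 For this assay, yeast diploids with a GFP reporter carried barcoded protein tiles at URA3, each fused to an estradiol-inducible synthetic transcription factor. Induction was a 1:5 dilution into SC with 1 uM beta-estradiol for 4 hours at 30 °C, followed by sorting into 8 bins by GFP:mCherry ratio and barcode sequencing. Tiles under 50 reads were dropped, and activation activity was calculated as the read-weighted mean of bin median fluorescence, averaged across barcodes and linearly mapped onto the initial dataset scale.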

Compared with “MWMSLLHFHTFTIFLTFFFFFFFFFCLPPFVSLLTLFLVEIFLSWREGFLPHP”, “MAGDDEEGRDADGEPDNAATPAKRQRVSRACDQCRAARERCDGKPQCHPCVSQ” is lower in “transcriptional activation domain activity” value: 39400 for the first, 34100 for the second.

First: LLEELTQRLLQTDETPDSKVKDLSRFINMIILRFFATARRMAVFRALFNLLLH
Second: KRCFSLFFFFFFSFLPFLFLFLSPYCLLNTFVPFSFSFLIYLILLLKFNLSAE
The “transcriptional activation domain activity” value of the first is higher: 50300 for the first, 48900 for the second.

First: MCCLLVVLVALSGVGDFFFFSLLLLLLLLERGGVFFLFWLFFFYLFILFFHRG
Second: LTHGRERSLIWKAKSSLNKWMFLVLRYFALLDLMFTVAVDTNFHVKYNTPFCI
The “transcriptional activation domain activity” value of the first is lower: 57000 for the first, 72400 for the second.

First: EHHLLKALVDVIKRAMLISAQGASGRFEAKDLHLEHMIYWLKYFLNRAVCIAL
Second: EPFHLQHQSNHVYGKIVIGDSLMDEWFIVYLLRELSLWLDHLVIRYIYRRLMI
The “transcriptional activation domain activity” value of the first is higher: 62700 for the first, 59900 for the second.

Going from “RWINSTIHNLFEVVMLPDLCGFCCFSMRFVVLLDLIGTLSLPVSFVYLVYLIY” to “SMHCGVVPCCFFVCLCLISFVYLEISIIFLGHSFFLSLSFFYIMNLFYTWWVS”, the “transcriptional activation domain activity” value falls from 64400 to 25200.

First: LPNFLKLGLTTLYSAIGFDEWPSDAVKWAYYFSNIRMVRSWSSWDLYQHLVPW
Second: KALVDAIITSHNIIIVHNQLIWFPNIVFLMSLIPLHIAAMNLWMALDMLFCFC
The “transcriptional activation domain activity” value of the first is lower: 45500 for the first, 52900 for the second.

Going from “VKKHYKLYYLDPGRTREFIAVSWFEVDILLVRWCSTTEYYTMTVFMTSLKKLN” to “KGFDSQCIEEWDPILFSAAEIWPTKGKPIALVEMDPIDFDFDVDNWDYVTRHL”, the “transcriptional activation domain activity” value rises from 50000 to 174000.

First: QTAVDNMNEQDLDGRNVRVNMANERPASSGGYGGGRGGGRGGFGGGRGRGGYG
Second: EVSEESGDSGDDEGRKEKKKRKRVKEEEVEDEGERKKKKSKKSKDEKSAEKAD
The “transcriptional activation domain activity” value of the first is lower: 29600 for the first, 47600 for the second.

Compared with “FVTLFGLAYFILTILPCLDHSCPYRTPMSSLWWYLWHMSLSSATLCLCWLLRL”, “ESCDGSLWLCPFSQPVRPSLIKLVSRGIDRRRITSLLFMLWLVCWAVSLLFSK” is higher in “transcriptional activation domain activity” value: 33600 for the first, 59900 for the second.

Going from “MTVLQYPFRFIVRTHFPLIWAYSSSLGVGYVFLIGSFFLFISLHPLPLFCLLC” to “AAAASSTPCLRRRPAPAPATARSSAARPAGCSCGGRSRRCGGRRTPSPSRRGP”, the “transcriptional activation domain activity” value falls from 66100 to 20300.

First: MLGPFSVFLSVFPPFAAGFGTALFPFFFSCCLCFCCWCTSFALFAPLTALFAV
Second: YAEWLIEPEQNNGTWVADVLWPAINLDLQWISLHWNQSSWDLWWPPVWGGSYW
The “transcriptional activation domain activity” value of the first is higher: 53300 for the first, 53200 for the second.

Compared with “HVFPILLRLVGGYALLRKLIDSIEEAYLAYHMVASQTYFMSTSLTFCAILARM”, “YYCLLWVRVSIKGQKGAVIAPEQIVIGWVDFHALIIVLWSNRISITLCVARVI” is lower in “transcriptional activation domain activity” value: 71200 for the first, 29200 for the second.

Compared with “GHSTSTFNTYDEVVSRPFISLDMLHLNRGANANTHPSHNAKLESECDSSSHSD”, “EFVRTSHGRLPAGKRLVKGGYEEDGTPLYHGMAIHEGIKVPGKISHRLYVLQS” is higher in “transcriptional activation domain activity” value: 38700 for the first, 43700 for the second.

Going from “NTDTYILFLFPFFWASNWFYTYQQNCYQLFYFNLRGRTFTNLWYWLAQIFGAL” to “THHAFPLRLLVAIVVLLDCHSLLQIALGTCTWAISYHVRPFALTTVILCCSIT”, the “transcriptional activation domain activity” value falls from 72900 to 41300.

First: RPAAVLARQRERERARDARARAVRGAAPVAAAVAVRRVARHVCVACACAAAAA
Second: MFFFLLLFIIVMYGCLVCEVIHTSFVGLIMVSTLMLNAFSCFMSFTYFLFFLF
The “transcriptional activation domain activity” value of the first is higher: 60400 for the first, 59000 for the second.

First: TSSPSAHSSTNTNVVFVFGSEDKRVKEVGDALKVKLAVKGGGKGVKWSGKFTG
Second: PFPLPLLLPCPLPLLFPLSFPLLLLLPFLLPLLFTLSFTLLFMLSFPLLFMLS
The “transcriptional activation domain activity” value of the first is lower: 25400 for the first, 47900 for the second.

First: GDAGGSSAAEQREAGQERRQRRGAERRQRQSVFEQLGGAEQRGAGRGSAGRGG
Second: LQHLVVPILFLGPLYATYLNQTLPFQAFWDYDEYVLRKYFSFMGLRTYIIGPI
The “transcriptional activation domain activity” value of the first is lower: < 6570 for the first, 52300 for the second.

Going from “QLQPFSESQSQNKFDYDMFFRDSSKEGNNLFGEFLEDDDDDKKAANMSDDESS” to “SYINTHNSNDNNNLMGSQARSNSQTPTASTIYEEAESQSSYLDDMFRTSQGGR”, the “transcriptional activation domain activity” value falls from 43800 to 43100.

Going from “MPTNFTKEGRTCTVTYKIQVHMIRPAVFIDFITLWIRQTFGMIVMVVTAELPR” to “TLLASFVIDHLKEGVASDEIVLFAFADFQDTRSTNVVVLLRTLLAQLLDRCKP”, the “transcriptional activation domain activity” value rises from 47800 to 65200.

First: MHFFSFFFLCFYFYFLSSLLGSMDYTALYFPFFFCSNYRRCYMCFLVEPFFFL
Second: RKADPPKEKKKPAVPAAEGAAAPAKKEKKDKKDKEAAAVSVEATEVKEEAAPA
The “transcriptional activation domain activity” value of the first is higher: 78500 for the first, 13900 for the second.

For “PLVLPVTAFYFYMDSFLKKYLLLYVFITKYESGGMFWRVVFNRFLFLTLLGNI”, the “transcriptional activation domain activity” value was 60500.
